From patent US10261099B2, “Cancer marker and therapeutic target” (Cancer Research Technology Ltd., priority 2007, dated 2019)
“Also recorded” adds a separate entry of the source. Values belong to the molecule of their own block, whether it stands above or below them.

Columns and labels:
[1] = tested on: CCR4 positive and negative cells; experiment: CCR4 expression of CCR4 positive and negative cells exposed to cytokines; assay type: cell-based; details: cytokines of the cervical microenvironment
Text: CCR4 positive and negative cells were exposed to a number of cytokines (TNF-α, TGF-β, IFN-γ, IL-4 and IL-10) known to be present in the cervical microenvironment and for which receptors were likely to be present on the tumour cells.

[2] = tested on: C41 cervical cancer cell line; experiment: CCR4 expression on C41 cells after cytokine stimulation (FACS); assay type: cell-based, human; details: 20 ng/ml, 24 h, versus unstimulated cells
Protocol: Dashed line: isotype control; grey line CCR4 expression; bold line; CCR4 expression after cytokine stimulation.
The most common cytokines present in a tumour are IL-10, TGF-β, FGF, TNF-α. The C41 cervical cancer cell line was stimulated in culture with different cytokines (IL-10, TNF-α, TGF-β, FGF; 20 ng/ml) for 24 h. The expression of CCR4 was then determined by FACS analysis.

[3] = tested on: C-41 cervical cancer cell line; experiment: trans-well migration assay of C-41 cells towards CCR4 ligands; assay type: cell-based, human; details: for chemotactic response of C-41 cells: trans-well migration assay
Protocol: (§1) The cervical cancer cell line C-41 (ATCC, Rockville, Md, USA) was cultured in DMEM medium supplemented with 10% FCS. […] Proliferation and migration were assessed using methods described previously.
To investigate the biological significance of CCR4 expression on cervical cancer cells a number of cervical cancer cell lines (CaSki, Me180, Hela-Ohio, Hela-S3, Siha, C33A, C41-1) were screened for CCR4 expression. The cell line C-41 expressed cell surface CCR4 in a constitutive manner (FIG. 6A). Using FACS analysis it was shown that C-41 cells expressed cell surface CCR4. […] Following stimulation with 100 ng/ml CCL22, cell surface CCR4 protein was internalized on C-41 cells after 2 hours and returned back to the surface after 3 hours (FIG. 6B).

[4] = tested on: C-41 cervical cancer cell line; experiment: C-41 growth/proliferation under suboptimal conditions after ligand stimulation; assay type: cell-based, human; details: 6 days
CCR4 = target: T1, CCR4 (Homo sapiens, UniProt P51679); experiment: CCR4 expression/internalization on C-41 cells after ligand stimulation (FACS); assay type: cell-based; details: stimulation with 100 ng/ml ligand
T1 construct: The cell line C-41 expressed cell surface CCR4 in a constitutive manner; host or cells: C-41 cervical cancer cell line
T1 sequence (P51679 1-360): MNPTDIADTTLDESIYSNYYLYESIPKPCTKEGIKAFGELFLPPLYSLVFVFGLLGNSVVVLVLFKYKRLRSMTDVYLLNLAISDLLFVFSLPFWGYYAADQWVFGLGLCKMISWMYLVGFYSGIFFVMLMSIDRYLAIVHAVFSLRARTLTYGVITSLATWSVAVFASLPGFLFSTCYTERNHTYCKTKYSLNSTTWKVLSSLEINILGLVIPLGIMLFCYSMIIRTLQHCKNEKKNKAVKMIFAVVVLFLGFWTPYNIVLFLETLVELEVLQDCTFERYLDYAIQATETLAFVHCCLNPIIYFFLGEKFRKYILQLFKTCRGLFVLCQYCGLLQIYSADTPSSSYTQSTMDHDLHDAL
Protocol: Values are the mean±SD of 10 determinations,*P <0.05, **P<0.01.
as §1
To investigate the biological significance of CCR4 expression on cervical cancer cells a number of cervical cancer cell lines (CaSki, Me180, Hela-Ohio, Hela-S3, Siha, C33A, C41-1) were screened for CCR4 expression.

Molecule: TNF-α
influence on CCR4 expression [1]: None of these influenced CCR4 expression

Molecule: TGF-β
CCR4 expression on C41 cells after cytokine stimulation [2]: upregulated in terms of percentage of positive cells
influence on CCR4 expression [1]: None of these influenced CCR4 expression

B1: IL-4: cytokine known to be present in the cervical microenvironment (protein, UniProt P05112 25-153, looked up)
Interleukin-4: HKCDITLQEIIKTLNSLTEQKTLCTELTVTDIFAASKNTTEKETFCRAATVLRQFYSHHEKDTRCLGATAQQFHRHKQLIRFLKRLDRNLWGLAGLNSCPVKEANQSTLENFLERLKTIMREKYSKCSS
influence on CCR4 expression [1]: None of these influenced CCR4 expression

B2: IL-10: cytokine commonly present in a tumour, used to stimulate C41 cells (protein, UniProt P22301 19-178, looked up)
Interleukin-10: SPGQGTQSENSCTHFPGNLPNMLRDLRDAFSRVKTFFQMKDQLDNLLLKESLLEDFKGYLGCQALSEMIQFYLEEVMPQAENQDPDIKAHVNSLGENLKTLRLRLRRCHRFLPCENKSKAVEQVKNAFNKLQEKGIYKAMSEFDIFINYIEAYMTMKIRN
CCR4 expression on C41 cells after cytokine stimulation [2]: upregulated in terms of percentage of positive cells
influence on CCR4 expression [1]: None of these influenced CCR4 expression

B3: IFN-γ: cytokine known to be present in the cervical microenvironment (protein, UniProt P01579 24-161, looked up)
Interferon gamma: QDPYVKEAENLKKYFNAGHSDVADNGTLFLGILKNWKEESDRKIMQSQIVSFYFKLFKNFKDDQSIQKSVETIKEDMNVKFFNSNKKKRDDFEKLTNYSVTDLNVQRKAIHELIQVMAELSPAAKTGKRKRSQMLFRG
influence on CCR4 expression [1]: None of these influenced CCR4 expression

cell surface CCR4 protein internalized on C-41 cells after (CCR4): 2 h
cell surface CCR4 returned back to the surface after (CCR4): 3 h
B4: CCL22: chemokine ligand of CCR4 (PeproTech) used to stimulate C-41 cells (protein, UniProt O00626 25-93, looked up)
C-C motif chemokine 22: GPYGANMEDSVCCRDYVRYRLPLRVVKHFYWTSDSCPRPGVVLLTFRDKEICADPRVPWVKMILNKLSQ
chemotactic response of C-41 cells [3]: typical bell-shaped chemotactic response
C-41 cell growth / proliferation ([4]; 1 ng/ml): significant increased growth; also recorded: simulated C-41 cell growth
C-41 cell growth / proliferation ([4]; 10 ng/ml): not
C-41 cell growth / proliferation ([4]; 100 ng/ml): significant increased growth; also recorded: simulated C-41 cell growth

cell surface CCR4 returned back to the surface after (CCR4): 3 h
B5: CCL17: chemokine ligand of CCR4 (PeproTech) used to stimulate C-41 cells (protein, UniProt Q92583 24-94, looked up)
C-C motif chemokine 17: ARGTNVGRECCLEYFKGAIPLRKLKTWYQTSEDCSRDAIVFVTVQGRAICSDPNNKRVKNAVKYLQSLERS
migration of C-41 cells ([3]; 10 ng/ml): induced significant migration
migration of C-41 cells ([3]; 100 ng/ml): induced significant migration
migration of C-41 cells ([3]; 1000 ng/ml): induced significant migration
chemotactic response of C-41 cells [3]: typical bell-shaped chemotactic response
C-41 cell growth / proliferation ([4]; 1 ng/ml): not
C-41 cell growth / proliferation ([4]; 10 ng/ml): significant growth increase; also recorded: increased proliferation
C-41 cell growth / proliferation ([4]; 100 ng/ml): significant growth increase; also recorded: increased proliferation
